Measured values from the RNAGym collection of RNA variant scans (doi:10.1073/pnas.2313332121).
Fewer inactive variants are shown than the library holds.

B1: TPR 5TU (parent)
chain: GGAUCUUCUCGAUCUAACAAAAAAGACAAAUCUGCCACAAAGCUUGAGAGCAUCUUCGGAUGCAGAGGCGGCAGCCUUCGGUGGCGCGAUAGCGCCAACGUUCUCAACUAUGACACGCAAAACGCGUGCUCCGUUGAAUGGAGUUUAUCAUG

Variants of: B1
Assay: polymerase ribozyme fitness, log enrichment relative to wild type (log ratio); higher = more active; in vitro selection for triplet polymerase activity
In short: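 In triplicate, a single round of in vitro selection was run on each mutant library, PCR-built and transcribed, covering one subunit of a heterodimeric triplet polymerase ribozyme. Frozen incubation at −7 °C followed annealing with a biotinylated primer, partner subunit and triplets, and extended constructs were then gel-excised, streptavidin-captured and taken through RT-PCR. Fitness is the logarithm of genotype enrichment over wild-type enrichment, from inverse-variance-weighted replicate averages of Illumina-sequenced inputs and outputs. […] only genotypes with ≥10 input reads and ≥1 read per output were kept.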

First: G50A A98U G126A
Second: A49G A66G G71C C87G C95G A120G G124C A142U
The “polymerase ribozyme fitness (log ratio)” value of the first is higher: -1.26 for the first, no more than -4.2 for the second.

Going from A49U A150U to C51A C96U A97U, the “polymerase ribozyme fitness (log ratio)” value falls from -0.0151 to -2.73.

Going from G50U C95A U109G to G50A A73U C87A U144A, the “polymerase ribozyme fitness (log ratio)” value falls from -3.26 to no more than -4.2.

A49G G68U G133A and G50U A107C C132A cannot be ordered by “polymerase ribozyme fitness (log ratio)” value: no more than -4.2 for the first, no more than -4.2 for the second.

First: G50U U56A A91G C116U
Second: G50A C116A
The “polymerase ribozyme fitness (log ratio)” value of the first is lower: -2.81 for the first, -0.537 for the second.

G50U A73U G84A U109G and C51U U55A C75A C85U U101A C114U A115G G124A cannot be ordered by “polymerase ribozyme fitness (log ratio)” value: no more than -4.2 for the first, no more than -4.2 for the second.

A52C C69A C87U U90C A142U and A52C C108A cannot be ordered by “polymerase ribozyme fitness (log ratio)” value: no more than -4.2 for the first, no more than -4.2 for the second.

Compared with A49G C63A G71U G83U A122U A150U, C51U C95G C105G G117U is higher in “polymerase ribozyme fitness (log ratio)” value: no more than -4.2 for the first, -3.53 for the second.

Going from G50U G81A C96G A142U to G50A G70A C75A, the “polymerase ribozyme fitness (log ratio)” value falls from -2.59 to no more than -4.2.

Compared with G50A C118U A122G A137G A147U, C51G G83A U134C is lower in “polymerase ribozyme fitness (log ratio)” value: -2.53 for the first, -3.62 for the second.

G50A C75U C96A A97U and A49U C54U G88C U90A C114U A142C cannot be ordered by “polymerase ribozyme fitness (log ratio)” value: no more than -4.2 for the first, no more than -4.2 for the second.

Going from A49G A52C U56A A91G G92A A121G to A52C C57G G94A G100U U148A, the “polymerase ribozyme fitness (log ratio)” value falls from -3.9 to no more than -4.2.

Compared with C51A C63A U82A, A52C A66C A91C A115G is lower in “polymerase ribozyme fitness (log ratio)” value: -0.419 for the first, no more than -4.2 for the second.

First: C51A G92U
Second: C51U U139G U144A
The “polymerase ribozyme fitness (log ratio)” value of the first is lower: -1.06 for the first, 0.259 for the second.

G50A U61A G81U G83C A91U U104G G143A and A49G G88U C96G U144C U148C U151G cannot be ordered by “polymerase ribozyme fitness (log ratio)” value: no more than -4.2 for the first, no more than -4.2 for the second.

Going from G50A G128U to A49U G58C G124U, the “polymerase ribozyme fitness (log ratio)” value rises from -3.21 to -1.3.

C51A C85U C103G G124A U145G A150G and C51U G86C A113G C114U A121G U151G cannot be ordered by “polymerase ribozyme fitness (log ratio)” value: no more than -4.2 for the first, no more than -4.2 for the second.

First: C51G G136U U144G
Second: A52C C87U A89C C99U
The “polymerase ribozyme fitness (log ratio)” value of the first is higher: -2.56 for the first, -4.14 for the second.

Going from C51A C118U G152A to C51U C85U, the “polymerase ribozyme fitness (log ratio)” value rises from -3.06 to -0.8.

Compared with C51G C85G C125U A137C, G50A C96G C129U is higher in “polymerase ribozyme fitness (log ratio)” value: no more than -4.2 for the first, -3.02 for the second.

Compared with G50U C87U C114A, G50C G86A C103G G124U C125U G126C is lower in “polymerase ribozyme fitness (log ratio)” value: -3.78 for the first, no more than -4.2 for the second.

First: A52C C93U G94C
Second: A52C C85U
The “polymerase ribozyme fitness (log ratio)” value of the first is lower: -3.36 for the first, -1.81 for the second.

A52C C76A and A52C C76G cannot be ordered by “polymerase ribozyme fitness (log ratio)” value: no more than -4.2 for the first, no more than -4.2 for the second.

First: C51U C103A
Second: A49G C51A U53C C87G
The “polymerase ribozyme fitness (log ratio)” value of the first is higher: -1.29 for the first, no more than -4.2 for the second.

Going from C51A U61A C95U to G50A C75U A91U A150C, the “polymerase ribozyme fitness (log ratio)” value falls from -2.06 to no more than -4.2.

C51U G84C C87A C95A A122C A137U G141C and G50A C54U G80A U82G G88A G92A C93G U145A cannot be ordered by “polymerase ribozyme fitness (log ratio)” value: no more than -4.2 for the first, no more than -4.2 for the second.

G50C C87G and G50C A52C U77C C79A U101G A115U cannot be ordered by “polymerase ribozyme fitness (log ratio)” value: no more than -4.2 for the first, no more than -4.2 for the second.

Going from G50U U77A C87A to C51U C93U U109G C116U, the “polymerase ribozyme fitness (log ratio)” value rises from no more than -4.2 to -3.68.

First: G50U G74A C85U
Second: G50C C87U G100A
The “polymerase ribozyme fitness (log ratio)” value of the first is higher: -3.88 for the first, no more than -4.2 for the second.

C51U C96G C132A and C51G G94A U135A are within 0.2 log units of each other in “polymerase ribozyme fitness (log ratio)” value: -3.26 for the first, -3.11 for the second.

First: A49G U53A
Second: G50U C57G
The “polymerase ribozyme fitness (log ratio)” value of the first is lower: -1.54 for the first, 0.0255 for the second.

Compared with C51U C87U C103A C116A, G50C G84A is lower in “polymerase ribozyme fitness (log ratio)” value: -2.08 for the first, -3.25 for the second.

Going from G50U G83A A97U A98U to A52C C57U, the “polymerase ribozyme fitness (log ratio)” value falls from 0.0748 to -1.24.

First: A52C C57G
Second: A52C C132U
The “polymerase ribozyme fitness (log ratio)” value of the first is higher: -1.79 for the first, -2.24 for the second.

Going from A49U G84U A97G C114G to C51G U55A, the “polymerase ribozyme fitness (log ratio)” value rises from no more than -4.2 to -2.88.

First: C51G U55G C108A A119U G124A G141A U146A
Second: A49G U53C A98U A121G
The “polymerase ribozyme fitness (log ratio)” value of the first is lower: no more than -4.2 for the first, -1.87 for the second.

Compared with C51A C93U, G50C G83A is lower in “polymerase ribozyme fitness (log ratio)” value: -2.22 for the first, -3.65 for the second.

Going from A49G A91G A142C to C51U G140U, the “polymerase ribozyme fitness (log ratio)” value rises from -3.71 to -2.55.

Going from A52C C54U to C51A A52G U56G C79A, the “polymerase ribozyme fitness (log ratio)” value falls from -1.87 to no more than -4.2.

First: C51A A52G G68A A142C U144A
Second: C51U U134C
The “polymerase ribozyme fitness (log ratio)” value of the first is lower: no more than -4.2 for the first, -0.745 for the second.

First: C51A C63A G88U G126A
Second: G50C U134A
The “polymerase ribozyme fitness (log ratio)” value of the first is lower: no more than -4.2 for the first, -3.17 for the second.

With G50U A122G U148A the “polymerase ribozyme fitness (log ratio)” value was -3.37.
